Three substances from PMC3866869 can be followed below.

Common to all, as to assay: crystal structure; hanging drop; protein in 25 mM HEPES pH 7.5, 150 mM NaCl, 5% glycerol with 5 mM glutamate or 1 mM KA, mixed 1:1 with reservoir (19-27% PEG 4000, 0-9% propan-2-ol, 80 mM sodium acetate); data collected at 100 K; LBD dimer, one (I222) or two (P212121) dimers in the asymmetric unit
The target of assay [1] is GluK2 R775A ligand-binding domain (rat) (UniProt P42260).
Assay [2] concerns the target GluK2 K531A-T779G ligand-binding domain (rat) (UniProt P42260).
Assay [3] deals with GluK2 K531A ligand-binding domain (rat) (UniProt P42260).

What is called stoichiometry N is the number of molecules, sites or subunits per partner or assembly.

The substance “GluK2 R775A ligand-binding domain (from UniProt P42260 32-544; P42260 667-908) (domain or fragment)” had a stoichiometry N in assay [1] of 2.

In assay [2], “GluK2 K531A-T779G ligand-binding domain (from UniProt P42260 32-544; P42260 667-908) (domain or fragment)” came in with a stoichiometry N of 2.

The substance “GluK2 K531A ligand-binding domain (from UniProt P42260 32-544; P42260 667-908) (domain or fragment)” returned a stoichiometry N in assay [3] of 2.
